Data from article PMC8666670 (2021).

Biological target: GlmU, glucosamine-1-phosphate N-acetyl transferase/N-acetyl-glucosamine-1-phosphate uridylyltransferase of E. … (E. coli, UniProt P0ACC7 1-456)
Assay: SPR

Chain of GlmU, glucosamine-1-phosphate N-acetyl transferase/N-acetyl-glucosamine-1-phosphate uridylyltransferase of E. … (P0ACC7 whole entry): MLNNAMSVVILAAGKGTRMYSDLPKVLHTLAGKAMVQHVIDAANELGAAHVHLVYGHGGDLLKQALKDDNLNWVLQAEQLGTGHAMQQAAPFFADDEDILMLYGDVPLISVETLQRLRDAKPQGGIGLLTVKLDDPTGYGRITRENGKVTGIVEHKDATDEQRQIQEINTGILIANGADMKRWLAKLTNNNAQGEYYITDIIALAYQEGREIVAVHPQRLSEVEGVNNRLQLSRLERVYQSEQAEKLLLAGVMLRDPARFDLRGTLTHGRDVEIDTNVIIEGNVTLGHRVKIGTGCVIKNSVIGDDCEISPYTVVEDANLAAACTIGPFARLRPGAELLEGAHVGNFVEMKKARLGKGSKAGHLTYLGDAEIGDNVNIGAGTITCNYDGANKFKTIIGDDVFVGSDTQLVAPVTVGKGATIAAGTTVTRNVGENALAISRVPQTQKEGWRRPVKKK

Kd: 82.5 µM
B1: acetyl-acyl carrier protein (acetyl-ACP) (natural protein)
chain: MSTIEERVKKIIGEQLGVKQEEVTNNASFVEDLGADSLDTVELVMALEEEFDTEIPDEEAEKITTVQAAIDYINGHQA
modifications: prosthetic group with attached acetyl chain (acetyl thioester), made from apo-ACP and acetyl-CoA with [ACP]synthase
